Test results taken from the RNAGym collection of RNA variant scans (doi:10.1073/pnas.2313332121).

B1: TPR t1 (parent)
chain: GACCAAUCUGCCCUCAGAGCUCGAGAACAUCUUCGGAUGCAGAGGAGGCAGGCUUCGGUGGCGCGAUAGCGCCAACGUCCUCAACCUCCAAUGCAUCCCACCACAUGAUGAUGCCUGAAGAGCCUUGGUUUUUUG

Variants of: B1
Experiment: polymerase ribozyme fitness, log enrichment relative to wild type (log ratio); higher = more active; in vitro selection for triplet polymerase activity
Procedure, shortened: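 Both subunits of a heterodimeric triplet polymerase ribozyme were given their own mutant library, built by PCR and transcribed. Each library was annealed with a biotinylated primer, the partner subunit and triplets, incubated frozen at −7 °C, and its extended constructs gel-excised, captured on streptavidin beads and amplified by RT-PCR, all in one round done in triplicate. Fitness is the logarithm of genotype enrichment relative to wild-type enrichment, with replicates averaged by inverse-variance weighting. That logarithm is base 2, and Illumina-sequenced genotypes needed ≥10 input reads and ≥1 read per output.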

| Variant | polymerase ribozyme fitness (log ratio) |
| --- | --- |
| C4G A26G U78C C99U C114G U132C | -5.4 |
| C4G A41U A46C U87G A91U C115A G135U | -4.36 |
| C4G A90G C104U | -0.701 |
| C4G A90U A100C C124U U132C | -4.88 |
| C4G A111U | -3.42 |
| C4G C8A C80U C115A G120A U125A | -2.71 |
| C4G C8G A26G G71A G120U | -1.19 |
| C4G C8G U9G U21G U96G A111U | -3.56 |
| C4G C11U C13U G47U C72G | -5.03 |
| C4G C12A C15A C94A C99U G110C | -6.59 |
| C4G C13A C89A U130C | -3.33 |
| C4G C13U C53U C115G A121U | 0.995 |
| C4G C15A A16U C53A U78C C115U | -3.67 |
| C4G C20G G61U G117A | -4.76 |
| C4G C22U G23A A66U A83G C97G C99U U106A G113U C124A | -7.47 |
| C4G C40G C115U | -3.42 |
| C4G C56G C64U | -3.26 |
| C4G C64U | -2.5 |
| C4G C72G | -1.74 |
| C4G C73A A91U | -3.63 |
| C4G C73U | -1.69 |
| C4G C86A | -2.95 |
| C4G C89A | -2.63 |
| C4G C97A | -5.92 |

| Variant | polymerase ribozyme fitness (log ratio) |
| --- | --- |
| C4G C101A | -2.61 |
| C4G C115A | -3.11 |
| C4G C124A | 0.669 |
| C4G G10A | -1.4 |
| C4G G10U A18G U59G A83C U87A | -4.53 |
| C4G G39A C40U G93A C102A | -3.57 |
| C4G G39U | -3.24 |
| C4G G44A G60C A111G | -3.78 |
| C4G G44C | -2.96 |
| C4G G44U U96A | -4.42 |
| C4G G45A C114U | -4.45 |
| C4G G45C C70A | -4.27 |
| C4G G48U C70U | -3.27 |
| C4G G61C | -2.88 |
| C4G G63U | -1.88 |
| C4G G63U G120U G122U | -1.51 |
| C4G G69A | -2.97 |
| C4G G69C G127A | -2.67 |
| C4G G71A | -1.72 |
| C4G G110A | -2.16 |
| C4G U7G C13U G113A | -1.14 |
| C4G U7G U55A C99U U112G U132C | -4.94 |
| C4G U9A C56G U112A G117A G120C | -6.24 |
| C4G U9A C62G C89A C115A G117C | -5.76 |

| Variant | polymerase ribozyme fitness (log ratio) |
| --- | --- |
| C4G U9C A43G G47A C70U | -4.92 |
| C4G U9C C15A U55C C73A C79G | -2.6 |
| C4G U9G C13A C82U A111G | -2.04 |
| C4G U9G G23A G113C | -4.79 |
| C4G U38A A95U G127C | -0.148 |
| C4G U78G C80U | -1.48 |
| C4G U87A | -2.92 |
| C4G U112A | -0.309 |
| C4G U112C | -0.0354 |
| C4G U125G | 0.0157 |
| C4G U129C | -1.99 |
| C4U | -0.513 |
| C4U A6U G45A C80U C101A | -3.66 |
| C4U A16G C49U G69A G71C U78G C82U A84U C115A | -6.51 |
| C4U A18U | -2.35 |
| C4U A26G A41U C72U U87G A111C | -4 |
| C4U A37U C40U A83G | -2.17 |
| C4U A41C | -1.67 |
| C4U A41C C56A G63A | -4.61 |
| C4U A43C U125A | -3.11 |
| C4U A43U U96A | -3.02 |
| C4U A100U G117U | -4.99 |
| C4U A121U | 2.23 |
| C4U C8A C12U C79G | -1.25 |

| Variant | polymerase ribozyme fitness (log ratio) |
| --- | --- |
| C4U C8A C28U U59A | -2.29 |
| C4U C8G C34G A46U U59G C62U C102U G113U A121C U131G | -6.55 |
| C4U C8G U33G C85G C94U | -6 |
| C4U C11A | -1.89 |
| C4U C11A C13U A16C U30G C49A C64G C102G U112G C115A | -7.83 |
| C4U C11G C49U G51A C80U C94G | -2.25 |
| C4U C11U C104U C115A | -2.94 |
| C4U C12A U59C A66C | -2.92 |
| C4U C13A A46U G52U C73A | -4.74 |
| C4U C13U G19U A95G | -2.99 |
| C4U C15U | -1.62 |
| C4U C15U A43U A46U | -3.46 |
| C4U C20A G120U | -3.69 |
| C4U C31U G61U C98G C101A C114U | -6.59 |
| C4U C34A G71C A83G C98U U112A | -5.16 |
| C4U C34G G57A U67C G69A C124U G127C | -6.05 |
| C4U C40U | -1.42 |
| C4U C49U U78A | -1.36 |
| C4U C56A | -0.607 |
| C4U C56G C70A | -3 |
| C4U C70A | -2.42 |
| C4U C70U | -0.878 |
| C4U C72A A91G G117C | -5.33 |
| C4U C72A A100U | -1.48 |

| Variant | polymerase ribozyme fitness (log ratio) |
| --- | --- |
| C4U C73U | -0.492 |
| C4U C97G | -3.97 |
| C4U C98U G113U | -3.82 |
| C4U C101G | -2.06 |
| C4U C114A G128C | -4.42 |
| C4U G10U G51U C79G | -3.58 |
| C4U G19A G71A G120C | -3.53 |
| C4U G35C C72U G117C C123U U125A | -6.14 |
| C4U G35U C62U C98A C123G | -2.75 |
| C4U G42A C114G | -3.21 |
| C4U G42A G45U G47A | -4.19 |
| C4U G42C G60U C88G C99G A111U U134A | -5.4 |
| C4U G44A C73U A75U C94A | -2.78 |
| C4U G45U | -1.35 |
| C4U G52C | -0.368 |
| C4U G52C G63A G110A | -4.4 |
| C4U G57A G61A | -0.861 |
| C4U G58C C97G | -4.76 |
| C4U G60C A83U A84C C86A | -2.24 |
| C4U G61A C89A | -1.4 |
| C4U G69C | -2.05 |
| C4U G120C | -0.0314 |
| C4U U7C A43U C62G | -4.93 |
| C4U U9A C82A | 0.0858 |

| Variant | polymerase ribozyme fitness (log ratio) |
| --- | --- |
| C4U U9C A41U | -0.927 |
| C4U U9C C34G A100U | -4.68 |
| C4U U9G U54C C76A | -0.732 |
| C4U U14A | -2.88 |
| C4U U14A G69A C101U | -5.32 |
| C4U U38G | -1.16 |
| C4U U38G U112A | -0.207 |
| C4U U54A C72G C82A C114A | -3.49 |
| C4U U112C | 1.38 |
| C4U U129A | -2.07 |
| A5C A6U A50U C56U A121U | 1.17 |
| A5C A24G A27G | -4.69 |
| A5C A24G U87C | -3.15 |
| A5C A37C G60C C79U C123A | -0.023 |
| A5C A37G C88A | -3.94 |
| A5C A37U G69A C123A G128A | -4.31 |
| A5C A37U G127U | -2.11 |
| A5C A46U | -1.95 |
| A5C A46U A83C C86G C114A G117A | -6.85 |
| A5C A50C U96G | -1.64 |
| A5C A84G | -1.64 |
| A5C A118G | -0.499 |
| A5C C8G A37U U38C A43C G57A G110A C124U | -5.51 |
| A5C C8U C34A A75U C79U C101G | -3.24 |

| Variant | polymerase ribozyme fitness (log ratio) |
| --- | --- |
| A5C C8U C34A C79U C101G | -3.49 |
| A5C C11G G44A C56A U112A | -0.571 |
| A5C C12G U14A G63U | -2.95 |
| A5C C13U C88A C123U | 1.09 |
| A5C C13U G44C G48U C115U | -3.4 |
| A5C C28A G47U C53G G93U | -7.47 |
| A5C C34U G63C U129G | -4.67 |
| A5C C53A G71U C98U U112A G120U | -6.47 |
| A5C C56A | -0.668 |
| A5C C56U G69U G120A G135C | -1.06 |
| A5C C62U C72G C101G U106G U129C | -5.17 |
| A5C C62U C85U C123A | -1.09 |
| A5C C64U | -0.365 |
| A5C C64U G77U G110A | -3.72 |
| A5C C73A | -0.312 |
| A5C C73G A84U | -2.25 |
| A5C C73G C102A | -3.71 |
| A5C C76U | -0.646 |
| A5C C89U | -0.689 |
| A5C C94U G110A | -2.08 |
| A5C G17A | -4.76 |
| A5C G17A C82A | -5.14 |
| A5C G17C G44A A83U G120A U131A | -4.99 |
